Experimental data from paper PMC517709.

system: a1;alpha2 (Saccharomyces cerevisiae;Saccharomyces cerevisiae); test: EMSA; conditions: 1.4 uM a1 constant, 5-fold dilutions of alpha2 from 82 nM, protein dilution buffer 50 mM Tris pH 7.6, 1 mM EDTA, 500 mM NaCl, 10 mM 2-mercaptoethanol …

| Substance | binding signal (fold decrease in affinity vs HO(10)) |
| --- | --- |
| CDC25 ORF site | 5 |
| PRM8 ORF site | 5 |
| PRM9 ORF site | 10 |
| URB1 ORF site | 25 |
| YKL162C ORF site | 10 |
